Molecular target: the molecule itself
Assay: FRET or BRET

B1: Ciona intestinalis Hv1 (Ci-Hv1) D171A/S242C channel (natural protein, UniProt Q1JV40 1-342, looked up)
chain: MEGDNCNKSRHKSHNMINPNYASVRCTQPLPSVIQLRSRNKMIGITEDPSSDSEPVSSNQPLLLTNLSYEVHTFNDNNNHERPAPQEQSTQNTMISMQSEQKSDRFTASNLGMFQYMKFEIGEDGDDHEEEAILTNREKLRHILHSKPIHVAIIVLVVLDSFLVVGELLIALKVIIVPHGNPAPEILHGFSLSILSIFMVEIALKIIADHRHFIHHKVEVLDAVVVVISFGVDIALIFVGECEALAAIGLLVILRLWRVFRIINGIIVTVKTKADDRVHEIKKKNSELELQIHNLEEKLSQKEQDMSRLHEILRCNNIDIPPTVPLTTSVQIHSTTTASADV
modifications: Alexa488-maleimide (donor) or TMR-MTS (acceptor) on the introduced cysteine 242
  stoichiometry N: 2

Reference: article PMC3558936 (Neuron, 2013)
